Columns and labels:
[1] = target: T1, mouse TNF-alpha (mouse, UniProt P06804 80-235); test: cell-based or functional assay
T1 sequence (looked up): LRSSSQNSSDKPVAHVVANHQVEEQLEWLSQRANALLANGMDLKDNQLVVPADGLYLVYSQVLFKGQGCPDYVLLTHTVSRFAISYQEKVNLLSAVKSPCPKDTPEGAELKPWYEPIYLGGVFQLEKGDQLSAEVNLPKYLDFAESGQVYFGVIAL

[2] = target: T2, human Tumor Necrosis Factor alpha (human, UniProt P01375 77-233); test: in vitro receptor binding assay: biotinylated human TNF-alpha pre-incubated with VHH, binding to coated Enbrel
T2 construct: also called human TNF-alpha; TNF

[3] = target: T2, human Tumor Necrosis Factor alpha; test: cell-based or functional assay

T2 sequence (P01375 77-233 limits assumed): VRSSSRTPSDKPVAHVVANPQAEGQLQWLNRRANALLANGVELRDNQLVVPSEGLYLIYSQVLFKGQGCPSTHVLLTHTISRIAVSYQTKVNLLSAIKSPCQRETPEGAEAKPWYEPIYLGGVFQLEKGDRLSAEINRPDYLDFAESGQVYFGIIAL

B1: VHH#m4B (VHH)
VHH: QVQLQDSGGGLVQAGGSLRLSCGVSGLSFSGYTMGWFRQAPGKEREFAAAIGWNSGTTEYRNSVKGRFTISRDNAKNTVYLQMNSLKPEDTAVYYCAASPKYMTAYERSYDFWGQGTQVTVSS
- relative potency, MTT cytotoxicity assay with the murine cell line L929 [1]: 10 fold

B2: VHH#12B (VHH)
VHH: QVQLQESGGGLVQPGGSLRLSCAASGFEFENHWMYWVRQAPGKGLEWVSTVNTNGLITRYADSVKGRFTISRDNAKYTLYLQMNSLKSEDTAVYYCTKVLPPYSDDSRTNADWGQGTQVTVSS
- IC50 [2]: 66 nM

B3: VHH#12B Q1E + Q5L + A74S + Y76N + K83R + P84A (VHH)
VHH: EVQLLESGGGLVQPGGSLRLSCAASGFEFENHWMYWVRQAPGKGLEWVSTVNTNGLITRYADSVKGRFTISRDNSKNTLYLQMNSLRAEDTAVYYCTKVLPPYSDDSRTNADWGQGTQVTVSS
notes: Made by site-directed mutagenesis and purified on TALON; The tags are not described for the mutant; also called mutant Q1E+Q5L+A74S+Y76N+K83R+P84A; mutant 1E+Q5LA74S+Y76N+K83R+P84A
- IC50 [2]: 200 nM
- fold increase of IC50 against wild type VHH#12B [2]: 3 fold

B4: VHH#m9E (VHH)
VHH: EVQLVESGGGLVQAGGSLRLSCAASGGTLSSYITGWFRQAPGKEREFVGAVSWSSSTIVYADSVEGRFTISRDNHQNTVYLQMDSLKPEDTAVYYCAARPYQKYNWASASYNVWGQGTQVTVSS
- IC50, MTT cytotoxicity assay with L929 cells (mouse TNF-alpha 65 pg/ml) [1]: 25 nM

B5: TRI 3E (VHH)
chain: QVQLQESGGGLVQPGGSLRLSCAASGRTFSDHSGYTYTIGWFRQAPGKEREFVARIYWSSGNTYYADSVKGRFAISRDIAKNTVDLTMNNLEPEDTAVYYCAARDGIPTSRSVESYNYWGQGTQVTVSSEPKTPKPQPAAAQVQLQESGGGLVQPGGSLRLSCAASGRTFSDHSGYTYTIGWFRQAPGKEREFVARIYWSSGNTYYADSVKGRFAISRDIAKNTVDLTMNNLEPEDTAVYYCAARDGIPTSRSVESYNYWGQGTQVTVSSEPKTPKPQPAAAQVQLQESGGGLVQPGGSLRLSCAASGRTFSDHSGYTYTIGWFRQAPGKEREFVARIYWSSGNTYYADSVKGRFAISRDIAKNTVDLTMNNLEPEDTAVYYCAARDGIPTSRSVESYNYWGQGTQVTVSS
- IC50, cell based assay using KYM cells (TNF-alpha 1.29 ng/ml) [3]: 20000 nM

B6: VHH#m3F (VHH)
VHH: QVQLQDSGGGLVQAGGSLRLSCAASGGTFSSIIMAWFRQAPGKEREFVGAVSWSGGTTVYADSVLGRFEISRDSARKSVYLQMNSLKPEDTAVYYCAARPYQKYNWASASYNVWGQGTQVTVSS
- IC50, MTT cytotoxicity assay with L929 cells (mouse TNF-alpha 65 pg/ml) [1]: 2 nM
- relative potency, MTT cytotoxicity assay with the murine cell line L929 [1]: 10 fold

B7: TETRA 3E (VHH)
chain: QVQLQESGGGLVQPGGSLRLSCAASGRTFSDHSGYTYTIGWFRQAPGKEREFVARIYWSSGNTYYADSVKGRFAISRDIAKNTVDLTMNNLEPEDTAVYYCAARDGIPTSRSVESYNYWGQGTQVTVSSEPKTPKPQPAAAQVQLQESGGGLVQPGGSLRLSCAASGRTFSDHSGYTYTIGWFRQAPGKEREFVARIYWSSGNTYYADSVKGRFAISRDIAKNTVDLTMNNLEPEDTAVYYCAARDGIPTSRSVESYNYWGQGTQVTVSSEPKTPKPQPAAAQVQLQESGGGLVQPGGSLRLSCAASGRTFSDHSGYTYTIGWFRQAPGKEREFVARIYWSSGNTYYADSVKGRFAISRDIAKNTVDLTMNNLEPEDTAVYYCAARDGIPTSRSVESYNYWGQGTQVTVSSEPKTPKPQPAAAQVQLQESGGGLVQPGGSLRLSCAASGRTFSDHSGYTYTIGWFRQAPGKEREFVARIYWSSGNTYYADSVKGRFAISRDIAKNTVDLTMNNLEPEDTAVYYCAARDGIPTSRSVESYNYWGQGTQVTVSS
- IC50, cell based assay using KYM cells (TNF-alpha 1.29 ng/ml) [3]: 6000 nM

B8: BIV 3E (VHH)
chain: QVQLQDSGGGLVQAGGSLRLSCAASGGTFSSIIMAWFRQAPGKEREFVGAVSWSGGTTVYADSVLGRFEISRDSARKSVYLQMNSLKPEDTAVYYCAARPYQKYNWASASYNVWGQGTQVTVSSEPKTPKPQPAAAQVQLQDSGGGLVQAGGSLRLSCAASGGTFSSIIMAWFRQAPGKEREFVGAVSWSGGTTVYADSVLGRFEISRDSARKSVYLQMNSLKPEDTAVYYCAARPYQKYNWASASYNVWGQGTQVTVSS
- IC50, cell based assay using KYM cells (TNF-alpha 1.29 ng/ml) [3]: 0.03 nM
- fold lower IC50 than the monomer VHH#3E, cell based assay using KYM cells [3]: 400 fold

B9: BIV#m3F (VHH)
chain: QVQLQDSGGGLVQAGGSLRLSCAASGGTFSSIIMAWFRQAPGKEREFVGAVSWSGGTTVYADSVLGRFEISRDSARKSVYLQMNSLKPEDTAVYYCAARPYQKYNWASASYNVWGQGTQVTVSSEPKTPKPQPAAAQVQLQDSGGGLVQAGGSLRLSCAASGGTFSSIIMAWFRQAPGKEREFVGAVSWSGGTTVYADSVLGRFEISRDSARKSVYLQMNSLKPEDTAVYYCAARPYQKYNWASASYNVWGQGTQVTVSS
- IC50, MTT cytotoxicity assay with L929 cells (mouse TNF-alpha 65 pg/ml) [1]: 2000 nM
- fold change of IC50 against monovalent 3F, MTT cytotoxicity assay with L929 cells [1]: 1000 fold
